Measured values reported in publication PMC7504102.

Biological target: unfused negative control SGFP2
Experiment: pull-down; SGFP2-fused proteins held on protein G magnetic beads via anti-GFP pAb; incubated with Nluc-ALG-2 (300 ng/mL) in buffer HKM, 0.2% Nonidet P-40, 0.1% gelatin, 100 μM CaCl2, 2 h, 4 °C; bound luciferase activity relative to Sec31A-p (100%)

nanoluciferase (NanoLuc, Nluc)-fused ALG-2, sequence (O75340 whole entry, the tested form may be a part): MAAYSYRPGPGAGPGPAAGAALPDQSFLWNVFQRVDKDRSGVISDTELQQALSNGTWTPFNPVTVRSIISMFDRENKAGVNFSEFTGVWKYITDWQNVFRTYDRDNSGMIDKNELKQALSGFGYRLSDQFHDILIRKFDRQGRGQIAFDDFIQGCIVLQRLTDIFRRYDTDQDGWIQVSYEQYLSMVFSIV

Question: For “nanoluciferase (NanoLuc, Nluc)-fused ALG-2 (from UniProt O75340 1-191) (natural protein)”, which binding activity relative to Sec31A-p (100%) is on record?
Answer: Its binding activity relative to Sec31A-p (100%) is 0.18%.
